Literature values in PMC7587574.
pKd: −log10 of the molar value. Where two headings read alike, the source gives them in different places.

How the values were obtained:
[1] = target: PACAP receptor (PAC1R) (Homo sapiens) (UniProt P41586)
[2] = target: PACAP receptor (PAC1R) (Homo sapiens) (UniProt P41586); remark: listed apart in the source
[3] = target: κ-opioid receptor (Homo sapiens) (UniProt P41145)
Chain of κ-opioid receptor (Homo sapiens) (P41145 whole entry): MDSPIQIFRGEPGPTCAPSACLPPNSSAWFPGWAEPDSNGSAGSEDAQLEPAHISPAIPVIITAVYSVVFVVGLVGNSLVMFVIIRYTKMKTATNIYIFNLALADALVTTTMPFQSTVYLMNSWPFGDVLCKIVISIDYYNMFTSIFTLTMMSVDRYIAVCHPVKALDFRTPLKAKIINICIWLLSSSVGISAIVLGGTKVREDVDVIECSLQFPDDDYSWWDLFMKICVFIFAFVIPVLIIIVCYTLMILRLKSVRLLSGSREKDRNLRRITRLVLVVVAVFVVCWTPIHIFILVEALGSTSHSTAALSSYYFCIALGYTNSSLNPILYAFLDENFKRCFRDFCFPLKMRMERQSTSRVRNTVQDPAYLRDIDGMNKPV

Chain of PACAP receptor (PAC1R) (Homo sapiens) (P41586 21-468): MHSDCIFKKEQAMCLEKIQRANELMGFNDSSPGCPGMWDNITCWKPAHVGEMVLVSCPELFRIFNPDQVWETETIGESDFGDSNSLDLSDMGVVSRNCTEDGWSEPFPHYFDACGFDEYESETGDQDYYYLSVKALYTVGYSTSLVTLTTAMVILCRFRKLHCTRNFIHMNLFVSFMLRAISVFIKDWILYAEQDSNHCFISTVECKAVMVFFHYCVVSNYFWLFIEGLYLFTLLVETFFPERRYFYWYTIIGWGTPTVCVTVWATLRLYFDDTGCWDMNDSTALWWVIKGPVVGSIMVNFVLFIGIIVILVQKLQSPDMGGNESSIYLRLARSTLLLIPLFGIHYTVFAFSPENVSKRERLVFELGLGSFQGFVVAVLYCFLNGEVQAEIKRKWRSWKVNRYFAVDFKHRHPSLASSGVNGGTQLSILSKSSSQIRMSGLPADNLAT
Chain of PACAP (P18509 82-129): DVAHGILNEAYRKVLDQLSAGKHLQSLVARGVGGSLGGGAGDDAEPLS
Chain of PACAP (truncated) (P18509 137-169): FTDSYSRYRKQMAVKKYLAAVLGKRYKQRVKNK

For PACAP (from UniProt P18509), the pKd [1] is listed as 8.52.

For PACAP (truncated) (from UniProt P18509), the pKd [2] is given as 4.74.

In the case of “dynorphin 13-mer fragment (from UniProt P01213)”, the pKd [3] is listed as 6.70.
